Data from the supplement of paper PMC10724198.
± gives the standard deviation of the averaged measurements.

tested on: Saccharomyces cerevisiae; assay: protein stability index of tFT-peptide fusion (C-terminal peptide) (PSI (0-1 scale)); higher = more stable (slower turnover); settings: genetic background: wild type; temperature: 30 C
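Note: PSI is a weighted mean of sequencing reads over stability bins, variants kept only with over 10 reads, mCherry proximal and sfGFP distal, peptide attached via GGGS linker.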

Row | Sequence | protein stability index
1 | PPPFSPPSDLPL | 0.601 ± 0.041
2 | PPPGPPPPPPYP | 0.656 ± 0.12
3 | PPPGPPSAPPPH | 0.706 ± 0.047
4 | PPPGPRPPSRSN | 0.581 ± 0.022
5 | PPPHAARSLFSL | 0.733 ± 0.098
6 | PPPHATPAPSPL | 0.706 ± 0.045
7 | PPPHPGFHLSSP | 0.673 ± 0.088
8 | PPPHPKPPPAGH | 0.62 ± 0.069
9 | PPPHPPTPLPPT | 0.701 ± 0.018
10 | PPPHSPSPTPHW | 0.713 ± 0.016
11 | PPPHSSPPPSPP | 0.693 ± 0.069
12 | PPPHTPLPPLAP | 0.744 ± 0.05
13 | PPPLGPPPPSSL | 0.774 ± 0.072
14 | PPPLLCPSSAPP | 0.783 ± 0.087
15 | PPPLPALRPPSH | 0.7193 ± 0.0013
16 | PPPLPLVPPSPP | 0.651 ± 0.033
17 | PPPLPPAPPPFP | 0.698 ± 0.017
18 | PPPLPPFPPAPP | 0.642 ± 0.012
19 | PPPLPPPCSAPP | 0.736 ± 0.012
20 | PPPLPPPSLVSF | 0.6741 ± 0.0051
21 | PPPLPPSIPLPL | 0.743 ± 0.031
22 | PPPLSPPPPPRP | 0.6643 ± 0.0031
23 | PPPLSVPVPPLS | 0.68 ± 0.021
24 | PPPPAPPAPPLR | 0.732 ± 0.056
25 | PPPPAQGRRRPV | 0.703 ± 0.023
26 | PPPPIRRPASHL | 0.76 ± 0.058

Row | Sequence | protein stability index
27 | PPPPLAPLPPAS | 0.608 ± 0.12
28 | PPPPLAVSPTSP | 0.716 ± 0.039
29 | PPPPLPFSPPDP | 0.681 ± 0.044
30 | PPPPLPHPPAAS | 0.7 ± 0.02
31 | PPPPLPPLTPLS | 0.6512 ± 0.0037
32 | PPPPLPPPTLPT | 0.726 ± 0.11
33 | PPPPLSPPPPRP | 0.693 ± 0.05
34 | PPPPLSTVPPPP | 0.811 ± 0.019
35 | PPPPPAIPRRRT | 0.678 ± 0.033
36 | PPPPPAPTTSVP | 0.6829 ± 0.002
37 | PPPPPHAEAVSR | 0.59 ± 0.029
38 | PPPPPLHPPPPL | 0.605 ± 0.056
39 | PPPPPLLAPSPL | 0.671 ± 0.07
40 | PPPPPLLPSPSP | 0.696 ± 0.05
41 | PPPPPLPPPPPT | 0.696 ± 0.087
42 | PPPPPLRPPRSP | 0.767 ± 0.013
43 | PPPPPPASPPSP | 0.71 ± 0.015
44 | PPPPPPLPLPLS | 0.711 ± 0.084
45 | PPPPPPLTPTFP | 0.6601 ± 0.0036
46 | PPPPPPNAPPSS | 0.647 ± 0.03
47 | PPPPPPPLTSLP | 0.7175 ± 0.0013
48 | PPPPPPPPHPPP | 0.559 ± 0.0068
49 | PPPPPPPPHSPP | 0.672 ± 0.035
50 | PPPPPPPRPSFP | 0.696 ± 0.041
51 | PPPPPPSLPLPP | 0.6709 ± 0.0044
52 | PPPPPRPPYPIP | 0.735 ± 0.011

Row | Sequence | protein stability index
53 | PPPPPSAPAPLH | 0.6963 ± 0.0021
54 | PPPPPSPAPGIP | 0.66 ± 0.055
55 | PPPPPSSFPFPP | 0.656 ± 0.049
56 | PPPPPTFPPPRS | 0.817 ± 0.025
57 | PPPPPTPLPSTL | 0.727 ± 0.038
58 | PPPPPTPPSSTP | 0.713 ± 0.068
59 | PPPPPTPTPPYR | 0.6952 ± 0.0014
60 | PPPPRLPARLAP | 0.77 ± 0.16
61 | PPPPRPPFPRAF | 0.698 ± 0.0051
62 | PPPPRPPPLPTR | 0.703 ± 0.021
63 | PPPPRPPRPPPA | 0.671 ± 0.12
64 | PPPPSLPPPPRS | 0.693 ± 0.035
65 | PPPPSSLPPPPC | 0.691 ± 0.012
66 | PPPPSSPFPHAS | 0.697 ± 0.03
67 | PPPPSSPPHLPF | 0.651 ± 0.018
68 | PPPPVPLPPPRL | 0.713 ± 0.021
69 | PPPPVPPPPSPL | 0.6974 ± 0.0036
70 | PPPPYARHTALI | 0.691 ± 0.032
71 | PPPQSPPLLLVL | 0.548 ± 0.021
72 | PPPRFRLSSFPT | 0.701 ± 0.021
73 | PPPRPGFCLFLP | 0.674 ± 0.05
74 | PPPRPRYLHPPS | 0.719 ± 0.035
75 | PPPRRPPPRLLS | 0.705 ± 0.11
76 | PPPSAPLPPLPL | 0.714 ± 0.019
77 | PPPSHLGSLDPL | 0.661 ± 0.02
78 | PPPSPPLPPHSP | 0.7619 ± 0.0011

Row | Sequence | protein stability index
79 | PPPSPPRPLLPV | 0.701 ± 0.023
80 | PPPSSELTFLHY | 0.797 ± 0.067
81 | PPPTPLLLSHLL | 0.709 ± 0.068
82 | PPPTPPRPPSPP | 0.656 ± 0.015
83 | PPPTPTPPSQPT | 0.681 ± 0.012
84 | PPPVPPPPAHTP | 0.681 ± 0.091
85 | PPPVPPPWPSPF | 0.661 ± 0.047
86 | PPPYRPPPSSPG | 0.661 ± 0.04
87 | PPQLSRHVSTRP | 0.754 ± 0.0084
88 | PPQPRSHPPHLS | 0.594 ± 0.086
89 | PPQSPPPGSPPP | 0.649 ± 0.013
90 | PPRASPFPTPPP | 0.579 ± 0.04
91 | PPRFCPPLAPSV | 0.681 ± 0.0095
92 | PPRFLPFPPLPL | 0.75493 ± 0.00067
93 | PPRLVPPTPPSS | 0.65 ± 0.064
94 | PPRPPAALPRLL | 0.714 ± 0.07
95 | PPRPPLSPPRSA | 0.718 ± 0.014
96 | PPRPRVLPYPPL | 0.746 ± 0.028
97 | PPRQLPFLAPSP | 0.709 ± 0.046
98 | PPRRPSPPSPHP | 0.67196 ± 0.00055
99 | PPRSPPSLPFPP | 0.634 ± 0.0066
100 | PPRTHRPPTPPQ | 0.7212 ± 0.0063
101 | PPSLCPPPSLLF | 0.733 ± 0.013
102 | PPSLLLCPLFTS | 0.602 ± 0.075
103 | PPSLPLLLPPCT | 0.649 ± 0.019
104 | PPSLPPLFLRAP | 0.667 ± 0.0091

Row | Sequence | protein stability index
105 | PPSLPPLPFSTP | 0.7352 ± 0.0065
106 | PPSLPPLSPPLA | 0.736 ± 0.02
107 | PPSNAFEETLRT | 0.7 ± 0.015
108 | PPSPLPQPRPQT | 0.695 ± 0.014
109 | PPSPPPPPASPP | 0.6805 ± 0.0015
110 | PPSPPPVRPHPP | 0.587 ± 0.068
111 | PPSPPSPPPSAP | 0.704 ± 0.0093
112 | PPSPRLFRFLPP | 0.631 ± 0.074
113 | PPSPSPPSPPPP | 0.656 ± 0.007
114 | PPSPSPPSPPSP | 0.654 ± 0.032
115 | PPSQRPPPPPPL | 0.704 ± 0.023
116 | PPSRPLSVLPPP | 0.6863 ± 0.0055
117 | PPSSPALPSDTP | 0.694 ± 0.013
118 | PPSSPCLRPSPP | 0.683 ± 0.037
119 | PPSSPPPTIPAH | 0.642 ± 0.029
120 | PPSSRPPVRSPP | 0.6903 ± 0.0014
121 | PPSSSPPHTPFP | 0.6557 ± 0.0011
122 | PPSTPPPSPPTP | 0.725 ± 0.072
123 | PPSTRPYRLFPL | 0.682 ± 0.048
124 | PPSVPTPCPVPI | 0.696 ± 0.067
125 | PPSWTPPSPLPL | 0.727 ± 0.06
126 | PPTFPPHSYLHP | 0.652 ± 0.043
127 | PPTLPFSARSPP | 0.659 ± 0.036
128 | PPTLPVPSPSPL | 0.822 ± 0.25
129 | PPTPHPSTPALP | 0.714 ± 0.075
130 | PPTPPPPSPLAP | 0.73 ± 0.034

Row | Sequence | protein stability index
131 | PPTSPPLAPPPL | 0.643 ± 0.062
132 | PPTVSRPPHLPT | 0.69 ± 0.048
133 | PPVLQPLLALAL | 0.535 ± 0.015
134 | PPVLVPAHHRPD | 0.651 ± 0.014
135 | PPVPDSFAAFLR | 0.743 ± 0.089
136 | PPVPPPHASPAP | 0.709 ± 0.05
137 | PPVPPPLPSPPP | 0.712 ± 0.025
138 | PPVRRPAHATTG | 0.722 ± 0.038
139 | PPVSHPSPFPLP | 0.653 ± 0.0095
140 | PPWPLVVQPSPP | 0.703 ± 0.041
141 | PPYAPSPSPPSH | 0.6936 ± 0.0029
142 | PPYPLHPARPPY | 0.702 ± 0.036
143 | PPYPPETPPVHP | 0.724 ± 0.037
144 | PPYPPGLPSLPP | 0.689 ± 0.043
145 | PQGAYLFTSTCI | 0.753 ± 0.054
146 | PQGGREYIYSPQ | 0.718 ± 0.019
147 | PQHFARSITPPP | 0.64 ± 0.097
148 | PQPPFTHGLIPS | 0.706 ± 0.023
149 | PQPPLYPPPSLP | 0.675 ± 0.036
150 | PQPPPRSPPSYL | 0.75 ± 0.049
151 | PQSKWQWHSGLT | 0.692 ± 0.065
152 | PQSPVCDLESRL | 0.666 ± 0.11
153 | PRAHIDWALTVM | 0.548 ± 0.065
154 | PRALLPPSPPSP | 0.635 ± 0.09
155 | PRAPQNEHQTKG | 0.667 ± 0.059
156 | PRASSPPPPTAS | 0.666 ± 0.024

Row | Sequence | protein stability index
157 | PRCCDIEIESGR | 0.68 ± 0.027
158 | PRDSLMRLDCRL | 0.691 ± 0.022
159 | PRDSPPPPPPPP | 0.699 ± 0.027
160 | PREFLVYDGVRV | 0.6382 ± 0.0059
161 | PRFPLPLPPPSP | 0.7356 ± 0.0037
162 | PRHGSPASPRPP | 0.636 ± 0.086
163 | PRHPLAPLPLPS | 0.724 ± 0.026
164 | PRIGEARNLCYK | 0.6816 ± 0.006
165 | PRIGPAPLPRLS | 0.714 ± 0.043
166 | PRKTRSTTTRKS | 0.593 ± 0.038
167 | PRLHRRPAYTFI | 0.606 ± 0.022
168 | PRLLPSTCEREV | 0.618 ± 0.066
169 | PRLLSTYAGSKW | 0.723 ± 0.012
170 | PRLPLPSRPSPR | 0.655 ± 0.064
171 | PRLPSPPGAPPP | 0.726 ± 0.011
172 | PRLSPLPPPSFP | 0.628 ± 0.045
173 | PRNPLFSPPLPD | 0.752 ± 0.0099
174 | PRPGPPPPPPSP | 0.713 ± 0.035
175 | PRPLALPFCKLW | 0.808 ± 0.14
176 | PRPLPAPPQRNL | 0.628 ± 0.017
177 | PRPPLPHQRPRS | 0.746 ± 0.13
178 | PRPPRSPLPSSL | 0.7 ± 0.041
179 | PRPQTSAHAETG | 0.644 ± 0.022
180 | PRPRPRSGWILL | 0.696 ± 0.036
181 | PRRFPPPSPSPP | 0.713 ± 0.085
182 | PRRPAFPPPGLP | 0.705 ± 0.072

Row | Sequence | protein stability index
183 | PRRQDSRLEQPD | 0.713 ± 0.0077
184 | PRRYPPPSPRTS | 0.704 ± 0.016
185 | PRSLSLLPPSSP | 0.734 ± 0.037
186 | PRSPPPPAQPFV | 0.705 ± 0.042
187 | PRSSPPPPPPPP | 0.681 ± 0.035
188 | PRSSSPPPRSPP | 0.669 ± 0.016
189 | PRTPPQQEPRRP | 0.709 ± 0.054
190 | PRVLPFPSFLFF | 0.657 ± 0.022
191 | PRVPSSPNPPPI | 0.805 ± 0.025
192 | PRWYVSFRTDDW | 0.709 ± 0.15
193 | PSALGYFRWAVG | 0.68 ± 0.042
194 | PSAPRPSPPALP | 0.855 ± 0.11
195 | PSAPSLPPFFPP | 0.644 ± 0.04
196 | PSDLFGIQQSLL | 0.764 ± 0.018
197 | PSEPGPPRVSTP | 0.647 ± 0.08
198 | PSFFLLRVFVPS | 0.524 ± 0.0061
199 | PSFSPLPLPSIV | 0.728 ± 0.039
200 | PSGAHLAHLLWL | 0.719 ± 0.053
201 | PSGGAVEGMGGE | 0.668 ± 0.059
202 | PSGHQAPEMQYL | 0.667 ± 0.022
